Reference: US20070286806A1, “Methods and Compositions for Modulating a Steroid Receptor” (Mount Sinai Hospital, priority 2004, published 2007)

How the values were obtained:
[1] = system: G5-Luc reporter; experiment: Mammalian two-hybrid system with G5-Luc reporter; assay type: cell-based, Syrian hamster; conditions: SHM cells
Procedure: FIG. 2. PSF interacts with PR in vivo. (A) 293T cells were transient transfected with an expression vector for PRB and/or His-PSF for 18 hours, followed by lysis in NETN buffer with NaCl at 150 mM. Whole cell lysate (WCL) was incubated with PR antibody (C-20, Santa Cruz) or anti-His tag antibody (H-15, Santa Cruz), using protein A/G-sepharose as an absorbent. Resins were washed with NETN containing 100 mM NaCl, and bound proteins were detected by western blotting with antibodies to PR (C-20) or His-PSF (H-15). (B) Western blots of PSF (left) and PR (right) in immunoprecipitates of control mouse IgG or mouse anti-PR (AB52) or anti-PSF (B92) antibody from extracts of T47D cells. […] Luciferase activity was measured and normalized by β-galatosidase activity. […]
For immunoprecipitation of the endogenous PR and PSF, T47D cells cultured in 150 mm dishes were lysed in 800 μl NETN buffer containing 150 mM NaCl plus protease inhibitor cocktail. […] Gels were treated with Enhancer (NEN, Boston, US) dried and analyzed by autoradiography. • Cell culture and transient transfection: SHM cells and 293T cells were maintained in DMEM plus 5% FCS (Sigma) as described before (22). […] Luciferase activity was determined by using the luciferin reagent (Promega) according to manufacture's protocol. […]

[2] = molecular target: T1, progesterone receptor isoform B (PRB), full length (Homo sapiens (Human), UniProt P06401 1-933); experiment: summary of Example 1; in vivo and in vitro protein interaction assays
T1 construct: From expression vector pSG5 PRB; expressed in 293T or SHM cells, or translated in rabbit reticulocyte lysate with ^35S methionine for the GST pulldown; also called ^35S-labeled PRB; full length PR
T1 sequence: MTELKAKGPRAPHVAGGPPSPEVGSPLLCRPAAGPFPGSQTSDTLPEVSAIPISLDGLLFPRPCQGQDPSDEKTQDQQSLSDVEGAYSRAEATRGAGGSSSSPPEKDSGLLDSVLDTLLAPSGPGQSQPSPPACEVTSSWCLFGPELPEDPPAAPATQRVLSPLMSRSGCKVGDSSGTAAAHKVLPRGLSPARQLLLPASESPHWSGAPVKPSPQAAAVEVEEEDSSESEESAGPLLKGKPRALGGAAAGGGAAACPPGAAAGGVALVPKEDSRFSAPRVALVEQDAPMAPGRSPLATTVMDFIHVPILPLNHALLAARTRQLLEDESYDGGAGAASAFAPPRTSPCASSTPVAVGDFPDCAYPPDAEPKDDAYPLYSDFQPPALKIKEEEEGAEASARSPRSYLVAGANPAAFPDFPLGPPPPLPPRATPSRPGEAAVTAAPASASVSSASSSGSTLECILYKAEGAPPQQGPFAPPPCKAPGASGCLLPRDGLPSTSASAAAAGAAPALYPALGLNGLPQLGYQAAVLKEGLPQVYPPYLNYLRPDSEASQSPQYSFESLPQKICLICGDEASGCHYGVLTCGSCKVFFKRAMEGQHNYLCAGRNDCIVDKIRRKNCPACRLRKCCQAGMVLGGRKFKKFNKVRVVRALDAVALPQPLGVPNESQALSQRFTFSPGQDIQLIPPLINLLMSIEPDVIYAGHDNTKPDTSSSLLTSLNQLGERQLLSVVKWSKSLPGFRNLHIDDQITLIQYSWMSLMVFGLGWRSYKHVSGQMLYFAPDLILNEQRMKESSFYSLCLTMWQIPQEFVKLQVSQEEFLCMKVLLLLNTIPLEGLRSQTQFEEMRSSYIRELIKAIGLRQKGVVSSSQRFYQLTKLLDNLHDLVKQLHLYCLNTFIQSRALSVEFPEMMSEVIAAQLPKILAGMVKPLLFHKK

B1: pM-PSF: PSF fused to C-terminus of Gal4-DBD in pM vector (protein)
chain: MKLLSSIEQACDICRLKKLKCSKEKPKCAKCLKNNWECRYSPKTKRSPLTRAHLTEVESRLERLEQLFLLIFPREDLDMILKMDSLQDIKALLTGLFVQDNVNKDAVTDRLASVETDMPLTLRQHRISATSSSEESSNKGQRQLTVSMSRDRFRSRGGGGGGFHRRGGGGGRGGLHDFRSPPPGMGLNQNRGPMGPGPGQSGPKPPIPPPPPHQQQQQPPPQQPPPQQPPPHQPPPHPQPHQQQQPPPPPQDSSKPVVAQGPGPAPGVGSAPPASSSAPPATPPTSGAPPGSGPGPTPTPPPAVTSAPPGAPPPTPPSSGVPTTPPQAGGPPPPPAAVPGPGPGPKQGPGPGGPKGGKMPGGPKPGGGPGLSTPGGHPKPPHRGGGEPRGGRQHHPPYHQQHHQGPPPGGPGGRSEEKISDSEGFKANLSLLRRPGEKTYTQRCRLFVGNLPADITEDEFKRLFAKYGEPGEVFINKGKGFGFIKLESRALAEIAKAELDDTPMRGRQLRVRFATHAAALSVRNLSPYVSNELLEEAFSQFGPIERAVVIVDDRGRSTGKGIVEFASKPAARKAFERCSEGVFLLTTTPRPVIVEPLEQLDDEDGLPEKLAQKNPMYQKERETPPRFAQHGTFEYEYSQRWKSLDEMEKQQREQVEKNMKDAKDKLESEMEDAYHEHQANLLRQDLMRRQEELRRMEELHNQEMQKRKEMQLRQEEERRRREEEMMIRQREMEEQMRRQREESYSRMGYMDPRERDMRMGGGGAMNMGDPYGSGGQKFPPLGGGGGIGYEANPGVPPATMSGSMMGSDMRTERFGQGGAGPVGGQGPRGMGPGTPAGYGRGREEYEGPNKKPRF
- luciferase activity on co-transfection with VP16-PRA and VP16-PRB ([1]; G5-Luc, ligand-independent): dramatic increase of luciferase activity
- reduction in luciferase activity compared to pM empty vector ([1]; co-transfected with G5-Luc): 70%

B2: His-PSF (6xHis-tagged full length human PSF, amino acid 1-707) (other)
chain: MSRDRFRSRGGGGGGFHRRGGGGGRGGLHDFRSPPPGMGLNQNRGPMGPGPGQSGPKPPIPPPPPHQQQQQPPPQQPPPQQPPPHQPPPHPQPHQQQQPPPPPQDSSKPVVAQGPGPAPGVGSAPPASSSAPPATPPTSGAPPGSGPGPTPTPPPAVTSAPPGAPPPTPPSSGVPTTPPQAGGPPPPPAAVPGPGPGPKQGPGPGGPKGGKMPGGPKPGGGPGLSTPGGHPKPPHRGGGEPRGGRQHHPPYHQQHHQGPPPGGPGGRSEEKISDSEGFKANLSLLRRPGEKTYTQRCRLFVGNLPADITEDEFKRLFAKYGEPGEVFINKGKGFGFIKLESRALAEIAKAELDDTPMRGRQLRVRFATHAAALSVRNLSPYVSNELLEEAFSQFGPIERAVVIVDDRGRSTGKGIVEFASKPAARKAFERCSEGVFLLTTTPRPVIVEPLEQLDDEDGLPEKLAQKNPMYQKERETPPRFAQHGTFEYEYSQRWKSLDEMEKQQREQVEKNMKDAKDKLESEMEDAYHEHQANLLRQDLMRRQEELRRMEELHNQEMQKRKEMQLRQEEERRRREEEMMIRQREMEEQMRRQREESYSRMGYMDPRERDMRMGGGGAMNMGDPYGSGGQKFPPLGGGGGIGYEANPGVPPATMSGSMMGSDMRTERFGQGGAGPVGGQGPRGMGPGTPAGYGRGREEYEGPNKKPRF
notes: Expressed in 293T or SHM cells (co-immunoprecipitation, reporter assays) or translated in rabbit reticulocyte lysate with ^35S methionine (GST pulldown); 1 only as 'e.g.' of wild type PSF; also called His tagged PSF; His tagged PSF1-707; not shown: N-terminal 6xHis tag of vector pcDNA3.1 6xHis
- binding result [2]: binds
